In IntAct's records for PubMed 12403843:

B1: Vitamin D3 receptor (Homo sapiens), P11473 (parent)
chain: MEAMAASTSLPDPGDFDRNVPRICGVCGDRATGFHFNAMTCEGCKGFFRRSMKRKALFTCPFNGDCRITKDNRRHCQACRLKRCVDIGMMKEFILTDEEVQRKREMILKRKEEEALKDSLRPKLSEEQQRIIAILLDAHHKTYDPTYSDFCQFRPPVRVNDGGGSHPSRPNSRHTPSFSGDSSSSCSDHCITSSDMMDSSSFSNLDLSEEDSDDPSVTLELSQLSMLPHLADLVSYSIQKVIGFAKMIPGFRDLTSEDQIVLLKSSAIEVIMLRSNESFTMDDMSWTCGNQDYKYRVSDVTKAGHSLELIEPLIKFQVGLKKLNLHEEEHVLLMAICIVSPDRPGVQDAALIEAIQDRLSNTLQTYIRCRHPPPGSHLLYAKMIQKLADLRSLNEEHSKQYRCLSFQPECSMKLTPLVLEVFGNEIS

Variants of: B1
Conditions: with ncoa1_human NCOA1, Q15788
ncoa1_human NCOA1, Q15788, sequence (Q15788 whole entry): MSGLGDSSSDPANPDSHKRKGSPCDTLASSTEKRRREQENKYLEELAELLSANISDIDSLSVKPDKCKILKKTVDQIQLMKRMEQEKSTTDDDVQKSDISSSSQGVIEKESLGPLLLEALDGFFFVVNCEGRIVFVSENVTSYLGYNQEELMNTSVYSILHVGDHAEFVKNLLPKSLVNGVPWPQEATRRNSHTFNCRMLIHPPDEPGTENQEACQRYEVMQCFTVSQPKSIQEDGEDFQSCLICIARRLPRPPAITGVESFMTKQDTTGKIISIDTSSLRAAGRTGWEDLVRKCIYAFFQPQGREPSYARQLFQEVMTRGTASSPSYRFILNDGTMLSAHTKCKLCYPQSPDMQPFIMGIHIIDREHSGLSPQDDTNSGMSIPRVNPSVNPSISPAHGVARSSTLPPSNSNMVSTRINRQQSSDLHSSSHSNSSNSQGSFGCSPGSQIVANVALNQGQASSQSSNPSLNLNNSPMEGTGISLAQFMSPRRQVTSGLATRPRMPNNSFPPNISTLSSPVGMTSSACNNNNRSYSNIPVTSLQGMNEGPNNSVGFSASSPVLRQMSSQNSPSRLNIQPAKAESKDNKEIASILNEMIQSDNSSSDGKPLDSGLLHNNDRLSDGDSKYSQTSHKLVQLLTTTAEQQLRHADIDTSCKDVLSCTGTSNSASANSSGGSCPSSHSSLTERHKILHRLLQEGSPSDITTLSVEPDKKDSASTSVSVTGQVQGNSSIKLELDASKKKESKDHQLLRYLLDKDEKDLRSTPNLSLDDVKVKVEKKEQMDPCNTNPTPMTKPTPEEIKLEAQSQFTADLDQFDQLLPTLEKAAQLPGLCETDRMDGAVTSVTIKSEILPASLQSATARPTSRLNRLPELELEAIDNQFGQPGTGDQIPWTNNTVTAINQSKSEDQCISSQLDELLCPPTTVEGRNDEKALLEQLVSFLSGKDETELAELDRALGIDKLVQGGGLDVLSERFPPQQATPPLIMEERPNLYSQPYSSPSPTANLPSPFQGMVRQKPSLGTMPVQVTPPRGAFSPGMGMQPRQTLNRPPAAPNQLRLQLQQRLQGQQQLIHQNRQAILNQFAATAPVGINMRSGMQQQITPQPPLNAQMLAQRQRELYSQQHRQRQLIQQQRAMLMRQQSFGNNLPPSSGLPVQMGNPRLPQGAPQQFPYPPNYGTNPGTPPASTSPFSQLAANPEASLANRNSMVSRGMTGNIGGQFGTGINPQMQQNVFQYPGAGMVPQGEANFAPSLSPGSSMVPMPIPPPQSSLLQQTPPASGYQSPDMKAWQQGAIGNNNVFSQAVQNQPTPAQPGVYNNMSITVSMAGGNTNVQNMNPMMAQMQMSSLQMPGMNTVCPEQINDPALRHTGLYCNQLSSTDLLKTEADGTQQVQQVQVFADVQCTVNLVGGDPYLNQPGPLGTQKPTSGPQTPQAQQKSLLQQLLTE

Row | Variant | effect of a mutation on the interaction
1 | MEAMAASTSLPDPGDFDRNVPRICGVCGDRATGFHFNAMTCEGCKGFFRRSMKRKALFTCPFNGDCRITKDNRRHCQACRLKRCVDIGMMKEFILTDEEVQRKREMILKRKEEEALKDSLRPKLSEEQQRIIAILLDAHHKTYDPTYSDFCQFRPPVRVNDGGGSHPSRPNSRHTPSFSGDSSSSCSDHCITSSDMMDSSSFSNLDLSEEDSDDPSVTLELSQLSMLPHLADLVSYSIQKVIGFAKMIPGFRDLTSEDQIVLLKSSAIEVIMLRSNESFTMDDMSWTCGNQDYKYRVSDVTKAGHSLELIEPLIKFQVGLKKLNLHEEEHVLLMAICIVSPDRPGVQDAALIEAIQDRLSNTLQTYIRCRHPPPGSHLLYAKMIQKLADLRSLNEEHSKQYRCLSFQPECSMKLTPLVLKVFGNEIS [E420K] | disrupting interaction strength

Variants of: B1
Conditions: with med1_human MED1, Q15648
med1_human MED1, Q15648, sequence (Q15648 whole entry): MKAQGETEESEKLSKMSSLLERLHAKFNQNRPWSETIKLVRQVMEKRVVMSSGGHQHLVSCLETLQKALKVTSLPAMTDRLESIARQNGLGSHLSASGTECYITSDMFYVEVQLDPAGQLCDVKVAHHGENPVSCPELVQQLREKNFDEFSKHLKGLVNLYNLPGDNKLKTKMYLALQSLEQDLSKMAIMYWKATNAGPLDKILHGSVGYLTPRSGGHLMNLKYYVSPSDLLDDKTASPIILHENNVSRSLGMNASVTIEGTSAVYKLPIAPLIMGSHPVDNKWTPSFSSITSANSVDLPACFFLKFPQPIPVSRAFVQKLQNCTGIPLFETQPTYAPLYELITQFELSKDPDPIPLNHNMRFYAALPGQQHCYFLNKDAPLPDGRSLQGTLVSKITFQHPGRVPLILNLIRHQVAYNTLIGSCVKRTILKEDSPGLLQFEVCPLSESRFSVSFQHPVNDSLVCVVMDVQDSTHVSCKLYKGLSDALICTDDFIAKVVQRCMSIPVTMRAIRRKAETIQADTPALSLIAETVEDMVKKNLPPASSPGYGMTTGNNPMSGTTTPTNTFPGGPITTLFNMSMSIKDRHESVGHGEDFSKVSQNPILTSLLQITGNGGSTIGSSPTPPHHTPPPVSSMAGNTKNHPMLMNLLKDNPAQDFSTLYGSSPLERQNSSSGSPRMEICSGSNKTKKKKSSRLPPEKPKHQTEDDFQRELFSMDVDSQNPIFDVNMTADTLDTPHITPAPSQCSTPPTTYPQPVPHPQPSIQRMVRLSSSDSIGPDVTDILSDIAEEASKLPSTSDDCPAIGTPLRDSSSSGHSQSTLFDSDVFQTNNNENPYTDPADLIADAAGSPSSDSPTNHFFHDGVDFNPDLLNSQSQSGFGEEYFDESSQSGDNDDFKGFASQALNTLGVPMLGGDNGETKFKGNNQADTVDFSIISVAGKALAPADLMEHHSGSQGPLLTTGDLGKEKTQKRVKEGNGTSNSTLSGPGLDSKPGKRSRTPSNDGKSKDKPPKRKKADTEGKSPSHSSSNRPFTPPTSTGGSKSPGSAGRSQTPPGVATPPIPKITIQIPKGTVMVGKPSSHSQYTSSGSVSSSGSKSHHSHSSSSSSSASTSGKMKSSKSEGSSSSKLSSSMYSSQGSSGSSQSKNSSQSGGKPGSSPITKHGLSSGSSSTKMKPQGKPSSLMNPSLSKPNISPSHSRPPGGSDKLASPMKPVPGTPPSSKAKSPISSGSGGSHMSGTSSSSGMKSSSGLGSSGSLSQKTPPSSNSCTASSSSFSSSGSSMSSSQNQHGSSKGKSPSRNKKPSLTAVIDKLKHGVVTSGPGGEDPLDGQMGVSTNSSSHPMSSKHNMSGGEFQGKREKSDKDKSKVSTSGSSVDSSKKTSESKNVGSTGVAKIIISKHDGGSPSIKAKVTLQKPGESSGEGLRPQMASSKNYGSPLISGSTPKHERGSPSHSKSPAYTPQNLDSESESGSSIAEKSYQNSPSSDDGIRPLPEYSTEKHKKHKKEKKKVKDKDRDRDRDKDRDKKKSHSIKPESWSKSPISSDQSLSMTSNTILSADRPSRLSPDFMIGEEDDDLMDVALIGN

Row | Variant | effect of a mutation on the interaction
2 | MEAMAASTSLPDPGDFDRNVPRICGVCGDRATGFHFNAMTCEGCKGFFRRSMKRKALFTCPFNGDCRITKDNRRHCQACRLKRCVDIGMMKEFILTDEEVQRKREMILKRKEEEALKDSLRPKLSEEQQRIIAILLDAHHKTYDPTYSDFCQFRPPVRVNDGGGSHPSRPNSRHTPSFSGDSSSSCSDHCITSSDMMDSSSFSNLDLSEEDSDDPSVTLELSQLSMLPHLADLVSYSIQKVIGFAKMIPGFRDLTSEDQIVLLKSSAIEVIMLRSNESFTMDDMSWTCGNQDYKYRVSDVTKAGHSLELIEPLIKFQVGLKKLNLHEEEHVLLMAICIVSPDRPGVQDAALIEAIQDRLSNTLQTYIRCRHPPPGSHLLYAKMIQKLADLRSLNEEHSKQYRCLSFQPECSMKLTPLVLKVFGNEIS [E420K] | disrupting interaction strength
